The target of this assay is M.EcoGII (methyltransferase EcoGII) (Escherichia coli). Description: SEC; 50-100 ug protein on Superdex 200 Increase 10/300 GL, 0.75 ml/min, 20 mM HEPES (pH 7.0 in the methods, pH 7.4 in the legend), 250 mM NaCl; molecular weight estimated from a calibration curve of LMW markers.

The values below come from article PMC11551740.

Usually stoichiometry N stands for a count of units in the complex or per binding partner. In the case of “M.EcoGII (methyltransferase EcoGII) (enzyme)”, the stoichiometry N was 2.
